Laboratory results as given in patent publication US20090148400A1 (IMMATICS BIOTECHNOLOGIES GMHH, published 2009).
Where no end group is shown, it is not given here.

What was measured:
[1] = target: T1, recombinant HLA-A*0201 molecule (HLA-A*0201 heavy chain refolded with beta-2 microglobulin) (human); test: ELISA-based HLA refolding assay
Experimental: (§1) The amount of de novo-folded HLA/peptide complexes was determined by a quantitative ELISA. Dissociation constants (KD values) were calculated using a standard curve recorded from dilutions of a calibrant HLA/peptide complex.

[2] = target: T1, recombinant HLA-A*0201 molecule …; test: ELISA-based HLA refolding assay: recombinant HLA-A*0201 heavy chain with b2m and graded doses of peptide
Experimental: as §1

[3] = target: T1, recombinant HLA-A*0201 molecule …; test: remark on making pMHC monomers for in vitro stimulation

| Binder | binding result [1] | other results |
| --- | --- | --- |
| KLMDLDVEQL [IMA-PCN-001] | binds |  |
| ILAPVILYI [IMA-NOX-001] | binds |  |
| ALFVRLLALA [IMA-TGFBI-001] |  | Kd [2]: 0.001 nM |
| STAPPVHNV [IMA-MUC-001] |  | binding result [3]: binds |
| KIFDEILVNA [IMA-TOP-001] | binds |  |
| LLGATCMFV [IMA-CCN-001] | binds |  |
| YVDPVITSI [IMA-MET-001] | binds |  |
| ILDQKINEV [IMA-ODC-001] |  | Kd [2]: 0.2 nM |
| ALSNLEVTL (also: acetate salt) [IMA-C20-001] | binds |  |
